According to patent US20200291135A1 (INSPIRNA, published 2020):

T1: rhMer/Fc Chimera (recombinant human MERTK extracellular domain conjugated to an IgG Fc domain) (human, UniProt Q12866 21-505)
T1 construct: extracellular domain; also called hMER recombinant protein; Mer-Fc conjugate; not shown: IgG Fc domain
T1 sequence (looked up): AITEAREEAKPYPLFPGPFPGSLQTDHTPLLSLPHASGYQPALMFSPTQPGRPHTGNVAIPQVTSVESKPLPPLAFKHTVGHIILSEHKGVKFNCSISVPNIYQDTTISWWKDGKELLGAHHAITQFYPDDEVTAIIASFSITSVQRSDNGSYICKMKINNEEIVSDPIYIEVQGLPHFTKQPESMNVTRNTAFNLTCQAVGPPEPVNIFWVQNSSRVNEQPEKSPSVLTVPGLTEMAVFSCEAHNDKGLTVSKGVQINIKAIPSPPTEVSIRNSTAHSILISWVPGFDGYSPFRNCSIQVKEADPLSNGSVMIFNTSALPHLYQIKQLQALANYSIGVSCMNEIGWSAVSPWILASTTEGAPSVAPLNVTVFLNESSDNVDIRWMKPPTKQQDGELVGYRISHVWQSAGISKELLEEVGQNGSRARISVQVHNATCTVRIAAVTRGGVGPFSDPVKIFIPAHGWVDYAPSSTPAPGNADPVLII

T2: human MERTK expressed on cells (SKMEL5 melanoma cells; in vitro differentiated M2 macrophages) (human, UniProt Q12866 21-999)
T2 construct: Endogenous MERTK of human cells; also called surface MERTK
T2 sequence: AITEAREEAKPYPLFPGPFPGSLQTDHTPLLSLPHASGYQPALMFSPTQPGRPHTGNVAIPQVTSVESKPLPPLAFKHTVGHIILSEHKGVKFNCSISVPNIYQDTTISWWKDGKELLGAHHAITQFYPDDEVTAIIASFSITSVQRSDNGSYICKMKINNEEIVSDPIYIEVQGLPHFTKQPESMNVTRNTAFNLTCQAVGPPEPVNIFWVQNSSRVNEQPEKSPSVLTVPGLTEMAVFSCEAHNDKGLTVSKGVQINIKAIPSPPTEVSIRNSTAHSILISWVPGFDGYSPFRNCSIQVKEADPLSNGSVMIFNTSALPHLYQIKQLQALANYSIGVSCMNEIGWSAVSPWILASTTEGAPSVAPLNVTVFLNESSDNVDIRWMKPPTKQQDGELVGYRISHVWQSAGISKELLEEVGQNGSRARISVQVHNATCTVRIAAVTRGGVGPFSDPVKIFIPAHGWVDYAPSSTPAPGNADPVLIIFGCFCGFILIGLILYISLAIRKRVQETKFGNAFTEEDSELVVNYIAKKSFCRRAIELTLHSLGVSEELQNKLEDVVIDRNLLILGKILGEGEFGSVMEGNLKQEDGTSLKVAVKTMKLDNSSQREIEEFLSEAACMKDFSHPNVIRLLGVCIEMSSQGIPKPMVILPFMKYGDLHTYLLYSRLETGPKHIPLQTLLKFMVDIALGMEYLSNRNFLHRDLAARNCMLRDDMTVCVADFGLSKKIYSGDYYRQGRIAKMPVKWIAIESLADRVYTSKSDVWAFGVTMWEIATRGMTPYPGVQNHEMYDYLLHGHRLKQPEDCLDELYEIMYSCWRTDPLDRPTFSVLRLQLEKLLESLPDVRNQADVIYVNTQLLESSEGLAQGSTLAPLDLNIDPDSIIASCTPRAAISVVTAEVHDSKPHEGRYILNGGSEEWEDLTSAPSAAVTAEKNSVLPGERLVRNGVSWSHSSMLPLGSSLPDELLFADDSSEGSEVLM


Assays:
[1] = molecular target: T1, rhMer/Fc Chimera (recombinant human …); assay: SPR, off-rate; ligand rhMer/Fc Chimera, antibody as analyte
[2] = molecular target: T2, human MERTK expressed on cells (SKMEL5 …); assay: cell-based assay similar to that for z10 (flow cytometry on cells)
[3] = molecular target: T1, rhMer/Fc Chimera (recombinant human …); assay: SPR, avidity format: rhMer/Fc Chimera immobilised on CM5 chip, antibody as analyte, 1:1 fit
Method: With respect to avidity and affinity measurements using SPR, the protocols below were used.
The activator was prepared with a mixture of 400 mM EDC and 100 mM NHS immediately prior to injection. The CM5 sensor chip was activated for 420 s with the mixture. […] The chip was deactivated by 1 M ethanolamine-HCl. […] 8 concentrations (0.3125, 0.625, 1.25, 2.5, 5, 10, 20 and 40 nM) of the antibodies and running buffer were injected at a flow rate of 30 μL/min for an association phase of 240 s, followed by 4800 s dissociation. 10 mM glycine pH 1.5 as regeneration buffer was injected following every dissociation phase. The chip was regenerated with 10 mM glycine pH 1.5. One surface channel without capturing ligand was used as control surface for reference subtraction. Final data of each interaction was deducted from reference channel and buffer channel data. […] A molecular weight of 150 kDa was used to calculate the molar concentration of the antibodies.

[4] = molecular target: T1, rhMer/Fc Chimera (recombinant human …); assay: SPR, off-rate; ligand rhMer/Fc Chimera, antibody as analyte; below the detection limit of the instrument

| koff [1] [s⁻¹] | EC50 [2] [nM] | Kd [3] [nM] | koff [4] [s⁻¹] | Binder |
| --- | --- | --- | --- | --- |
| 7e-06 |  |  |  | W3725-xAb-IgG1K/(S34+S35) (antibody, V domains shown, also called chimeric anti-MERTK antibody) VH: QIQLVQSGPELKKPGETVKISCKASGYTFTNYGMNWVKQAPGKGLKWMGWINTYTGEPTYADDFKGRFVFSLETSASTAYLQINNLKNEDMATYFCARKSTVVSRYFDVWGAGTTVTVSS VL: DIVLTQSHKFMSTSVGDRVSITCKASQDVGDAVTWCQQKPGQPPKLLIYWASTRHTGVPDRFTGSGSGTDFTLTINNVQSEDLADYFCQQYRSYPLTFGAGTKLELKR |
|  | 7.9 | 0.00299 | < 1e-06 | z11 antibody (antibody, human IgG1, kappa, V domains shown) VH: QVQLVQSGAEVKKPGASVKVSCKASGYTFTNYGMNWVRQAPGQGLEWMGWINTYTGEPTYADDFKGRVTMTLDTSTSTAYMELRSLRSDDMAVYYCARKSTVVSRYFDVWGQGTTVTVSS VL: DIQMTQSPSFLSASVGDRVTITCKASQDVGDAVTWYQQKPGKAPKLLIYWASTRHTGVPDRFSGSGSGTDFTLTISSLQPEDFATYYCQQYRSYPLTFGQGTKLEIKR |
|  | 7.6 | 0.00368 | < 1e-06 | z13 antibody (antibody, human IgG1, kappa, V domains shown) VH: QVQLVQSGAEVKKPGASVKVSCKASGYTFTNYGMNWVRQAPGQGLEWMGWINTYTGEPTYADDFKGRVTFTLDTSTSTAYMELRSLRSDDMAVYYCARKSTVVSRYFDVWGQGTTVTVSS VL: DIQMTQSPSFLSASVGDRVTITCKASQDVGDAVTWYQQKPGKAPKLLIYWASTRHTGVPDRFSGSGSGTDFTLTISSLQPEDFATYYCQQYRSYPLTFGQGTKLEIKR |
